This is an account of results in article PMC12024540, “Peptide-Based Regulation of TNF-α-Mediated Cytotoxicity” (Biomolecules, 2025).

Where no end group is shown, it is not given here.

The target in test [1] is T1, Human TNFR2 (soluble) recombinant protein (human, UniProt P20333 33-205, fluorescent label from the Monolith Protein Labeling Kit RED-NHS 2nd Generation (labelled target in MST)).
T1 construct: human TNF receptor 2, soluble recombinant form; also called TNF receptor 2; p80; source: bought: PeproTech
T1 sequence: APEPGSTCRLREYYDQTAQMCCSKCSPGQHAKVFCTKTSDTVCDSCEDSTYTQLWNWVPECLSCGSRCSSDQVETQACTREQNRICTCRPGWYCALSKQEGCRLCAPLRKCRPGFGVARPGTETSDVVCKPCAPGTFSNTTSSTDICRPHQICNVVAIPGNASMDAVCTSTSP
Put plainly: MST; labelled TNFR1 or TNFR2 (RED-NHS 2nd Generation) at 20 nM, peptide titrated in 16 serial dilutions, PBS, 20 min incubation in the dark, Monolith NT.115 Pico, medium MST power. The settings on record: both partners purified.

The target in test [2] is T2, Human TNFR1 (soluble) recombinant protein (human, UniProt P19438 42-181, fluorescent label from the Monolith Protein Labeling Kit RED-NHS 2nd Generation (labelled target in MST)).
T2 construct: human TNF receptor 1, soluble recombinant form; also called TNF receptor 1; sTNFR1; source: bought: PeproTech
T2 sequence: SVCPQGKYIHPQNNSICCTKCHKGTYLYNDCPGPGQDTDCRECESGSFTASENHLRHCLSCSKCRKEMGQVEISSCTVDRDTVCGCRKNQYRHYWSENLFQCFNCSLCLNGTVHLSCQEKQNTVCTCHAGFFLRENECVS
Described as above. The settings on record: both partners purified.

B1: OB6 peptide (peptide)
peptide: NPQAEGQLQWLNRRA
notes: 15-residue stretch of human TNF predicted with Rosetta Peptiderive from the TNF-TNFR2 complex; Synthesised on Rink amide resin, so probably with a C-terminal amide (stated only for OB5); source: synthetic peptide (SPPS, Rink amide resin, HPLC purified)
By Kd is commonly meant the concentration at which binding is half-saturated. For B1, in test [1], the Kd worked out at 3.9 µM.

B2: OB5 peptide (peptide)
peptide: NHQVEEQLEWLSQRA-NH2
notes: 15-residue stretch of mouse TNF-α predicted with Rosetta Peptiderive from the mouse TNF-α-human TNFR1 complex; source: synthetic peptide (SPPS, Rink amide resin, HPLC purified)
Turning to B2, the Kd in test [2] was determined as 0.204 µM.

B3: OB7 peptide (peptide)
peptide: VLLTHTISRIAVSYQTKVNLL
notes: Synthesised on Rink amide resin, so probably with a C-terminal amide (stated only for OB5); 21 residues as printed; source: synthetic peptide (SPPS, Rink amide resin, HPLC purified)
As for B3, the Kd in test [2] amounted to 8.6 µM.
